Here are results for 1 molecule from patent US20230002488A1 (SYSTIMMUNE, published 2023).

In experiment [1] the target is T1, human EGFR (human, UniProt P00533 25-645).
T1 construct: also called huEGFR; His-tagged human EGFR
The experiment can be described thus: BLI (Octet), GNC on AHC sensor, His-tagged human EGFR as analyte, global 1:1 fit.

For experiment [2], the target named is T2, human CD19 (human, UniProt P15391 20-291).
T2 sequence (looked up): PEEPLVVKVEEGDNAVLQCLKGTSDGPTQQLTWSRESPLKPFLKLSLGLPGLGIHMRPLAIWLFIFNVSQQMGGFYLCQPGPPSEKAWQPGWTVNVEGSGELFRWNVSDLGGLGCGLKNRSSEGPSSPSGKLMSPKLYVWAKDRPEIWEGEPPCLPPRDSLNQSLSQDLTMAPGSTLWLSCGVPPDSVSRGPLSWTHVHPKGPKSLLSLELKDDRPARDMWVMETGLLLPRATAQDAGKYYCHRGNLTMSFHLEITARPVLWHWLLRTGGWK
As to the kind of experiment: BLI (Octet), GNC on AHC sensor; strong binding, dissociation too slow to quantify KD.

In experiment [3] the target is T1, human EGFR. The experiment can be described thus: BLI (Octet), GNC on AHC sensor, antigen as analyte, 1:1 fit.
Experiment [4] concerns the target T3, human 4-1BB (human, UniProt Q07011 24-186).
T3 construct: Bought antigen; construct not described
As to the kind of experiment: BLI (Octet), GNC on AHC sensor, 100 nM antigen as analyte, 1:1 fit.

The target of experiment [5] is T4, human PD-L1 (human, UniProt Q9NZQ7 19-238).
T4 construct: Bought antigen; construct not described
The experiment is described as above.

B1: SI-55P9 (antibody, human IgG1, kappa)
heavy: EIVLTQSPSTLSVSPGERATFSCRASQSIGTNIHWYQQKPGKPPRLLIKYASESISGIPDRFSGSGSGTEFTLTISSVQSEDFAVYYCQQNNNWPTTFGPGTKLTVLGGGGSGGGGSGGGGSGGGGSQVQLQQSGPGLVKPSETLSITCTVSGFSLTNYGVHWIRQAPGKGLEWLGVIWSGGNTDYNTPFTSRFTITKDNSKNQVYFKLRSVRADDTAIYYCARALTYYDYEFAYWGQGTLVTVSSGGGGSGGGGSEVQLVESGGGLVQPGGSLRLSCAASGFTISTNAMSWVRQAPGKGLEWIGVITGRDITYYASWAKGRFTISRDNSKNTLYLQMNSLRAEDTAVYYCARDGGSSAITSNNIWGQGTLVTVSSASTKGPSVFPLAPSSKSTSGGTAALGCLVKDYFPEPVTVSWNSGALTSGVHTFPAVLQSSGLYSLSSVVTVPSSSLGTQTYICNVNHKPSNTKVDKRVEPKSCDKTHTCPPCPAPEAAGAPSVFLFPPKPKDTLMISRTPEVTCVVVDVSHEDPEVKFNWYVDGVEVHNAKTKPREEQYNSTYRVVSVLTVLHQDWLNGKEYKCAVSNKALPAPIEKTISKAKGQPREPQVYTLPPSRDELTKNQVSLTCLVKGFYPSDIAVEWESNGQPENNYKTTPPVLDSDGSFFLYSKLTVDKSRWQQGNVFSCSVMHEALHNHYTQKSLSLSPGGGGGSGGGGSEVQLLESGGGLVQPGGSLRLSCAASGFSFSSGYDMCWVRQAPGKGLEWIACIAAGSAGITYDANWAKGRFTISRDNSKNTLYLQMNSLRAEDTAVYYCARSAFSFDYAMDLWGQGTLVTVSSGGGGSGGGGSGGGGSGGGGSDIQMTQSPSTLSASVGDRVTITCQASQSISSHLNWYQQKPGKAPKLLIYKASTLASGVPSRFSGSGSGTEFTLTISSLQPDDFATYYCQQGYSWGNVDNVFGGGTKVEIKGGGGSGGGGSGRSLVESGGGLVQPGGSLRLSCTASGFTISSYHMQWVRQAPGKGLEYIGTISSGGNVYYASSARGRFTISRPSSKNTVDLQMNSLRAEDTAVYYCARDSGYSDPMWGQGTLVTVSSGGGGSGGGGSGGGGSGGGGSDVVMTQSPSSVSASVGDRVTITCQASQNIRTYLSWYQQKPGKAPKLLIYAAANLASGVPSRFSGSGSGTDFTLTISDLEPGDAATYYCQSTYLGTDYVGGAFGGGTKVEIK
light: ENVLTQSPASLSASPGERVTITCSASSSVSYMHWYQQKPGQAPKLWIYDTSKLASGVPSRFSGSGSGNDHTLTISSMEPEDFATYYCFQGSVYPFTFGQGTKVTVLGGGGSGGGGSGGGGSGGGGSQVTLKESGPGLVQPGQTLRLTCAFSGFSLSTSGMGVGWIRQPPGKGLEWLAHIWWDDDKRYNPALKSRLTISKDTSKNQVYLQMNSLDAEDTAVYYCARMELWSYYFDYWGQGTLVTVSSGGGGSGGGGSDVVMTQSPSTLSASVGDRVTINCQASESISSWLAWYQQKPGKAPKLLIYEASKLASGVPSRFSGSGSGTEFTLTISSLQPDDFATYYCQGYFYFISRTYVNSFGGGTKVEIKRTVAAPSVFIFPPSDEQLKSGTASVVCLLNNFYPREAKVQWKVDNALQSGNSQESVTEQDSKDSTYSLSSTLTLSKADYEKHKVYACEVTHQGLSSPVTKSFNRGEC
notes: Penta-specific: D1 humanized anti-EGFR H7 scFv, D2 CD3, D3 PD-L1, D4 4-1BB, D6 CD19
Turning to B1, the dissociation constant (Kd) was 7.41 nM in experiment [1], 7.41 nM in experiment [3], 7.55 nM in experiment [4] and 0.407 nM in experiment [5]. Besides, the binding result in experiment [2] is given as “binds”.
